Data reported in article PMC12931234, “Allosteric Modulation of Pathological Ataxin‐3 Aggregation: A Path to Spinocerebellar Ataxia Type‐3 Therapies” (Advanced Science, 2025).

Target: the molecule itself
Assay: thioflavin T fluorescence aggregation assay; 5 µM protein (monomer peak from Superose 12), 30 µM ThT, 37 °C, 20 mM HEPES pH 7.5, 150 mM NaCl, 1 mM DTT; without or with CLR01 or CLR03; amyloid self-assembly

B1: Truncated ataxin-3 variant comprising the N-terminal globular Josephin domain (Atx3 JD) (domain or fragment, human, UniProt P54252-2 1-180, looked up)
chain: MESIFHEKQEGSLCAQHCLNNLLQGEYFSPVELSSIAHQLDEEERMRMAEGGVTSEDYRTFLQQPSGNMDDSGFFSIQVISNALKVWGLELILFNSPEYQRLRIDPINERSFICNYKEHWFTVRKLGKQWFNLNSLLTGPELISDTYLALFLAQLQQEGYSIFVVKGDLPDCEADQLLQM
notes: Ataxin-3 (Atx3), human, UniProt P54252-2, N-terminal globular Josephin domain; printed MW 23 767.87 Da; The text names residues up to R182; NMR models of JD: PDB 1YZB and 2AGA (cited); also called isolated JD; not shown: His6, N-terminal, kept
- binding result: binds
